Series [1] addresses T1, Ec NucC (Escherichia coli, UniProt D7Y2H5). In words: ITC. In kind it is binding.
Series [2] concerns the target T1, Ec NucC. Briefly: ITC. In kind it is binding. This is another data set of the same source.
In a further series the target is Pa NucC (Pseudomonas aeruginosa, UniProt P0DTF8, D73N). In words: co-crystal structure at […] Å. In kind it is binding.
For series [3], the target named is T1, Ec NucC. Briefly: ITC. In kind it is binding. This is another data set of the same source.
A further series addresses T2, Vm NucC (Vibrio metoecus, UniProt P0DUD6).
T2 sequence (P0DUD6 1-245): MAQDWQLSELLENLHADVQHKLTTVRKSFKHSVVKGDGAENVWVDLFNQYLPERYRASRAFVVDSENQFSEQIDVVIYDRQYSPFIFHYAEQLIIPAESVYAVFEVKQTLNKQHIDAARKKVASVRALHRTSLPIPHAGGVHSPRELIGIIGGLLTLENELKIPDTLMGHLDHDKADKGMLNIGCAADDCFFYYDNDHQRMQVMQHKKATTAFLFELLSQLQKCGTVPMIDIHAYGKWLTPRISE
Briefly: plasmid digestion assay, weak activation. It is filed as biochemical.

The series “crystal structure” deals with the molecule itself. In words: crystal structure.
Series [4] concerns the molecule itself. In words: SEC-MALS. In general terms: SEC sorts molecules by how far they enter the pores of the column.
Series [5] concerns the molecule itself. Briefly: SEC-MALS. This is another data set of the same source.

From article PMC7065454 (Molecular cell, 2020) come the findings set out here.

Numbering of substitutions follows the chain as printed. Numbers in names are those of the source. Where “and” joins values, the source holds several entries; their conditions need not be identical. Equal entries are not always repeated. Where two headings read alike, the source gives them in different places.

In general, Kd refers to a measure of binding affinity in units of concentration. Read a high Kd as weaker binding. In the case of `Nc1ncnc2c1ncn2[C@@H]1O[C@@H]2COP(=O)(O)O[C@H]3[C@@H](O)[C@H](n4cnc5c(N)ncnc54)O[C@@H]3COP(=O)(O)O[C@H]2[C@H]1O` [3′,3′ cyclic di-AMP], at Ec NucC [1], the Kd stood at 2600 nM.

Regarding `Nc1ncnc2c1ncn2[C@@H]1O[C@H](COP(=O)(O)O[C@H]2[C@@H](O)[C@H](n3cnc4c(N)ncnc43)O[C@@H]2COP(=O)(O)O)[C@@H](O)[C@H]1O` [5′-pApA], on Ec NucC [2], the Kd was 4.4 µM.

In the case of `Nc1ncnc2c1ncn2[C@@H]1O[C@@H]2COP(=O)(O)O[C@H]3[C@@H](O)[C@H](n4cnc5c(N)ncnc54)O[C@@H]3COP(=O)(O)O[C@H]3[C@@H](O)[C@H](n4cnc5c(N)ncnc54)O[C@@H]3COP(=O)(O)O[C@H]2[C@H]1O` [cAAA], the “co-crystal structure at 1.45 Å; SEC-MALS hexamer assembly of Pa NucC” value on Pa NucC is on record as “We obtained crystals of P. aeruginosa ATCC27853 NucC D73N mutant bound to cAAA”. Further, the Kd at Ec NucC [3] turned out to be 700 nM.

Regarding `Nc1nc2c(ncn2[C@@H]2O[C@@H]3COP(=O)(O)O[C@H]4[C@@H](O)[C@H](n5cnc6c(N)ncnc65)O[C@@H]4COP(=O)(O)O[C@H]4[C@@H](O)[C@H](n5cnc6c(N)ncnc65)O[C@@H]4COP(=O)(O)O[C@H]3[C@H]2O)c(=O)[nH]1` [cAAG], on Vm NucC, the “plasmid digestion assay, weak activation” value was “weakly activated by both cAA and cAAG”.

For `Nc1ncnc2c1ncn2[C@@H]1O[C@@H]2COP(=O)(O)O[C@H]3[C@@H](O)[C@H](n4cnc5c(N)ncnc54)O[C@@H]3COP(=O)(O)O[C@H]2[C@H]1O` [cAA], the “plasmid digestion assay, weak activation” value on Vm NucC is “weakly activated by both cAA and cAAG”.

B1: E. coli MS115-1 NucC (wild type) (enzyme, UniProt D7Y2H5 1-241, looked up)
chain: MSDWSLSQLFASLHEDIQLRLGTARKAFQHPGAKGDASEGVWIEMLDTYLPKRYQAANAFVVDSLGNFSDQIDVVVFDRQYSPFIFKFNEQIIVPAESVYAVFEAKQSASADLVAYAQRKVASVRRLHRTSLPIPHAGGTYPAKPLIPILGGLLTFESDWSPALGMSFDKALNGDLSDGRLDMGCVASHGHFYFNNIDSKFNFEHGNKPATAFLFRLIAQLQFSGTVPMIDIDAYGKWLAN
For orientation: stoichiometry N means a count of units in the complex or per binding partner. For the molecule B1, the “stoichiometry N” value in “crystal structure” was 6; in the series “SEC-MALS [4]”, 3.

B2: Ec NucC L19D mutant with D73N (SEC-MALS sample) (enzyme, E. coli MS115-1, UniProt D7Y2H5 1-241, looked up)
chain: B1 chain with L19D, D73N
In the case of B2, the “stoichiometry N” value in the series “SEC-MALS [5]” turned out to be 3.

B3: Ec NucC L19A mutant with D73N (SEC-MALS sample) (enzyme, E. coli MS115-1, UniProt D7Y2H5 1-241, looked up)
chain: B1 chain with L19A, D73N
With B3, in “SEC-MALS [5]”, the binding result is “binds”.

B4: Ec NucC W4A mutant with D73N (SEC-MALS sample) (enzyme, E. coli MS115-1, UniProt D7Y2H5 1-241, looked up)
chain: B1 chain with W4A, D73N
For the molecule B4, in “SEC-MALS [5]”, the binding result is recorded as “binds”.

B5: P. aeruginosa ATCC 27853 NucC (wild type) (enzyme)
chain: MSQWSLSQLLSSLHEDIQQRLSVVRKTFGHPGTKGDASENVWIDMLDTYLPKRYQAAKAHVVDSLGNFSQQIDVVVFDRQYSPFIFTYENETIIPAESVYAVFEAKQTADAGLVAYAQEKVASVRRLHRTSLPIPHAGGTYPAKPLIPILGGLLTFESEWSPALGPSMDKALNANLTEGRLDIGCVAAHGHFFYDQASGAYSYTNENKPATAFLFKLIAQLQFSGTVPMIDVEAYGQWLTK
On to B5, for which the “stoichiometry N” value in the series “SEC-MALS [4]” stood at 3; in the series “SEC-MALS [5]” it was 6.

B6: Vibrio metoecus sp. RC341 NucC (enzyme, UniProt P0DUD6 1-245, looked up)
chain: T2 sequence (P0DUD6 1-245)
Consider B6, for which the “stoichiometry N” value in the series “SEC-MALS [4]” was 3 and 6.
